The values below are quoted from earlier work in PMC7843923.

For one data set, the target named is Unc5D (UniProt Q6UXZ4).
A further data set has as its target Latrophilin3 (UniProt Q9HAR2).
Chain of UniProt Q9HAR2 (Q9HAR2 20-862): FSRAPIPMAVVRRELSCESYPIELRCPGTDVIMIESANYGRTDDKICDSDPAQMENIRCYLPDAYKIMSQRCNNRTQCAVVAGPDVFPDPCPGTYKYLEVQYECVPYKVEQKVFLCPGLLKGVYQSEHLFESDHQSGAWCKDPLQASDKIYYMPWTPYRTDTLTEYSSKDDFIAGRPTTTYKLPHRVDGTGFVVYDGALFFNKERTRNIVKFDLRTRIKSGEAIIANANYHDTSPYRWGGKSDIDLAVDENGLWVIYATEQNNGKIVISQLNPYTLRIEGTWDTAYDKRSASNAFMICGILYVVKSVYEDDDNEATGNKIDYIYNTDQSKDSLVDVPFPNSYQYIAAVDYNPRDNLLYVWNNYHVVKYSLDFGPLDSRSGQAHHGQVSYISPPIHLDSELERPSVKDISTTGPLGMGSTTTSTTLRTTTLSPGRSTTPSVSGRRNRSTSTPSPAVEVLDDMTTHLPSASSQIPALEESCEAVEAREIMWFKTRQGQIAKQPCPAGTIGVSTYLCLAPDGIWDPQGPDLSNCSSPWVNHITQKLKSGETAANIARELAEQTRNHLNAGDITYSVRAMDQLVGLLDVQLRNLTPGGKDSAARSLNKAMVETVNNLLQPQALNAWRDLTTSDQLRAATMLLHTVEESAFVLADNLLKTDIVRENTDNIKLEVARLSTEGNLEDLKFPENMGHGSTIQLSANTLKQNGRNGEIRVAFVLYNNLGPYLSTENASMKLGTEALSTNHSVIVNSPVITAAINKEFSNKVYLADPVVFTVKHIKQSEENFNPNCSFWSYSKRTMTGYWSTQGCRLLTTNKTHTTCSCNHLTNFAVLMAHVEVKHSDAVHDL

Chain of UniProt Q6UXZ4 (Q6UXZ4 33-379): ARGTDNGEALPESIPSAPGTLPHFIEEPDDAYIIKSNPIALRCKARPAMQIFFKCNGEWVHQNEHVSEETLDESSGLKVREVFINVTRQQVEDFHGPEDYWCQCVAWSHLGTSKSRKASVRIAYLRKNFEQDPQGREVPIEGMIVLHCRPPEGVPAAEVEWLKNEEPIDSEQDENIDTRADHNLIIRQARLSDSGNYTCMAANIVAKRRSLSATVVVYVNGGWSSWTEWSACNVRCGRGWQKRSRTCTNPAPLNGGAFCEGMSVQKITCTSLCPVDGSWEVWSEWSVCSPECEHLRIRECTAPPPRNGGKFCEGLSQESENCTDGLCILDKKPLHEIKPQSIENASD

Consider FLRT2 (from UniProt O43155), for which the Kd with Unc5D was 310 nM.

Take FLRT (from UniProt Q9NZU0): the Kd in the data set with Latrophilin3 is 40 nM.

As a reminder, the Kd is the constant that tells how readily two partners part at equilibrium.
